The values below come from US20250000991A1 (Eli Lilly, published 2025).

Experiment [1] addresses T1, human nectin-4 on cells (human, UniProt Q96NY8 32-510).
T1 construct: also called Nectin-4 receptor
T1 sequence: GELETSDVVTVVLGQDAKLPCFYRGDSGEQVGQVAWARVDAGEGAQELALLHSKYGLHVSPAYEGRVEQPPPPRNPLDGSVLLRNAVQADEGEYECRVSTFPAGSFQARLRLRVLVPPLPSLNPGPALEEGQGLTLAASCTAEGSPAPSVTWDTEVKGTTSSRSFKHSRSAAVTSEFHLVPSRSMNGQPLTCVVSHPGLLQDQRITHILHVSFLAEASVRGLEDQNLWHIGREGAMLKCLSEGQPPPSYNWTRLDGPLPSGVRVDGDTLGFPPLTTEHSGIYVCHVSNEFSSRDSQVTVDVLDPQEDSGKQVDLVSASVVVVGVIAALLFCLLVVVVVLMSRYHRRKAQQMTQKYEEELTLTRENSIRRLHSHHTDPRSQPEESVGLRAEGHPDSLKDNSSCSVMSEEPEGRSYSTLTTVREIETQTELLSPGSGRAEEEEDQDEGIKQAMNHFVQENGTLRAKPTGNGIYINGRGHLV
Put plainly: flow cytometry, differentiated normal human epidermal keratinocytes (HEKα). In general terms: Flow cytometry measures light scatter and fluorescence of single cells or particles in a stream.

Experiment [2] concerns the target T2, human Nectin-4-eGFP on T24 cells (clone 3) (human, UniProt Q96NY8 32-510).
T2 sequence: T1 sequence
In words: cell-based or functional assay.

The target in experiment [3] is T3, recombinant HIS-tagged human nectin-4 (Acro Biosystems Cat. No. NE4-H52H3) (human, UniProt Q96NY8 32-349).
T3 construct: Bought protein; not shown: HIS tag
T3 sequence: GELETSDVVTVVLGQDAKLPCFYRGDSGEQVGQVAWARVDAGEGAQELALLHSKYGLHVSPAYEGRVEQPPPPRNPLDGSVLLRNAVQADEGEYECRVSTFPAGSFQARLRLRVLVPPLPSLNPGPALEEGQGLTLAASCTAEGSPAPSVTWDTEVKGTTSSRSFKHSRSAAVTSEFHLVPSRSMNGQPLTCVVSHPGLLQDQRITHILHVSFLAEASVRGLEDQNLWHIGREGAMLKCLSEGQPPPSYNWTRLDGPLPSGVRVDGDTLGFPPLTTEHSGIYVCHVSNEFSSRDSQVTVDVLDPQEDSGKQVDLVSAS
Put plainly: SPR Biacore 8K+, ADC captured via anti-human Fc, nectin-4 analyte, 37 C.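 Note: Nectin-4 injected over captured ADC at 0 to 600 nM for 2 min association, then 10 min dissociation, with a reference flow cell lacking ADC.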

For experiment [4], the target named is T4, recombinant HIS-tagged cyno nectin-4 (Acro Biosystems Cat. No. NE4-C52H4) (cyno, UniProt A0A2K5WES1 32-349).
T4 construct: Bought protein; HIS tag not described
T4 sequence: T3 sequence with V39A, I230V
Described as above.

The target in experiment [5] is T5, recombinant HIS-tagged rat nectin-4 (R&D Systems Cat. No. 9997-N4-050) (rat, UniProt D3ZET1 31-348).
T5 construct: Bought protein; HIS tag not described
T5 sequence: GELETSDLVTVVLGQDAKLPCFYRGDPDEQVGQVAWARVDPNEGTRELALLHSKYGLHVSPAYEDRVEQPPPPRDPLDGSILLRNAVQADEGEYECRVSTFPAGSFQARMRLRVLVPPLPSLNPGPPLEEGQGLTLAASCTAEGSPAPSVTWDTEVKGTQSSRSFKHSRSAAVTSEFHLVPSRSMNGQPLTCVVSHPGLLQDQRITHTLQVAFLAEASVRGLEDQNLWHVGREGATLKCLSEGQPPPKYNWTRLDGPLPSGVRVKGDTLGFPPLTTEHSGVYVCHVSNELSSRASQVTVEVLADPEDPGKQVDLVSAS
The experiment is described as above.

The target in experiment [6] is T1, human nectin-4 on cells. Put plainly: cell-based or functional assay.

Substitutions are numbered along the chain they refer to.

B1: Ab2 ADC (Ab2 conjugated as in Formula XI, DAR of 8) (antibody, human IgG1, kappa, L234A L235A, V domains shown)
VH: EVQLVESGGGLVQPGGSLRLSCAASGFTFSSYDMHWVRQATGKGLEWVSAIGTVGDTYYPGSVKGRFTISRENAKNSLYLQMNSLRAGDTAVYYCAREWNGMDVWGQGTTVTVSS
VL: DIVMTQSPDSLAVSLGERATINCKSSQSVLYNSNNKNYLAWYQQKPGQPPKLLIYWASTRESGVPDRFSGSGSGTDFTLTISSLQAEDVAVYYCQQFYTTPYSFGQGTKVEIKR
modifications: camptothecin analog linker-payload of Formula XI on cysteine thiols after full reduction, DAR of 8 per antibody; positions not given
notes: Antibody-drug conjugate of Ab2; also called Ab2 (ADC column)
With B1, in the experiment with human nectin-4 on cells [1], the EC50 – broadly, the concentration at which the effect is half-maximal – came out at 0.05 nM. Also, in experiment [2], the “% activity (max GFP signal loss compared to enfortumab mAb (100%))” value was 132% and the “EC50 (nM) of nectin-4-eGFP signal loss” value was determined as 1.96 nM. For the same molecule, in experiment [3], the Kd (in general, a measure of binding affinity in units of concentration) was 21 nM; the off-rate (koff) (in general, the rate constant with which the complex falls apart) is 0.0214 s⁻¹; the kon (as a rule, a measure of how fast the partners come together) worked out at 1.02e+06 M⁻¹ s⁻¹. Further, in experiment [4], the Kd is 19.8 nM, the dissociation rate constant (koff) amounted to 0.02 s⁻¹ and the on-rate (kon) is 1.01e+06 M⁻¹ s⁻¹. For the same molecule, in experiment [5], the Kd amounted to 108 nM, the koff amounted to 0.0753 s⁻¹ and the kon is 695000 M⁻¹ s⁻¹. In addition, in the experiment with human nectin-4 on cells [6], the “Cytotoxicity IC50, NCI H1781 cells” value is 0.0473 nM and the “Cytotoxicity IC50, T24 Nectin-4 clone 108 cells” value came to 0.07 nM.
